Values quoted from earlier work, collected in patent US6774099B1, “Dishwashing detergent compositions containing mixtures or crystallinity-disrupted surfactants” (The Procter & Gamble Company, priority 1999, dated 2004).

Conditions: enzymes compared at 0.075 to 2.5 mg protein per liter

B1: D96L: D96L lipolytic enzyme variant of the native lipase derived from Humicola lanuginosa (protein, UniProt O59952 23-291, looked up, variant D96L)
Lipase: EVSQDLFNQFNLFAQYSAAAYCGKNNDAPAGTNITCTGNACPEVEKADATFLYSFEDSGVGDVTGFLALDNTNKLIVLSFRGSRSIENWIGNLNFLLKEINDICSGCRGHDGFTSSWRSVADTLRQKVEDAVREHPDYRVVFTGHSLGGALATVAGADLRGNGYDIDVFSYGAPRVGNRAFAEFLTVQTGGTLYRITHTNDIVPRLPPREFGYSHSSPEYWIKSGTLVPVTRNDIVKIEGIDATGGNNQPNIPDIPAHLWYFGLIGTCL
lard stain removal efficiency, factor over the wild-type lipase: 4.4
